In patent US11643448B2 (JAPAN SCIENCE AND TECHNOLOGY AGENCY, priority 2013, dated 2023):
Where two headings read alike, the source gives them in different places.

Assays:
PC12 cells [1] = assay: Cell viability after photo-oxygenation reaction in the presence of cells (WST-8); format: cell-based, rat; details: light irradiation, regardless of presence or absence of Aβ (f and h)
Procedure: In a plate well in which the PC12 cells had been seeded, a phosphate buffer (pH 7.4, 50 μL) containing 20 μM of Aβ and a catalyst (Catalyst 1 in 4 μM or Catalyst 2 in 20 μM) was irradiated with 500 nm LED (light emitting diode) at 37° C. for 15 minutes. After the reaction, 50 μL of a HEPES buffer solution containing a 0.1% horse serum-containing medium was added to thereto (final Aβ concentration: 10 μM).
In order to achieve Aβ selective oxidation, a peptide having a high affinity for Aβ, D-[Lys-Leu-Val-Phe(4-phenyl)-Phe] (SEQ ID NO: 3) was identified, and was bonded to flavin as an affinity tag of Aβ (Catalyst 2 in FIG. 17). Catalyst 2 or riboflavin itself (Catalyst 1 in FIG. 17) was added to a phosphate buffer containing Aβ, and the mixture was irradiated with light in the presence of cells. 500 nm LED was used as a light source, and light was irradiated at 37° C. for 15 minutes. […] After the oxidation reaction, the cells were further incubated for 2 days, and the cell viability was determined thereafter (bar graph in FIG. 17). […] It is conceivable that the cells were damaged due to non-specific oxidation. On the other hand, when Catalyst 2 was used in the absence of Aβ under the condition j, 50% or more of the cells survived after the light irradiation. […]

Aβ = Aβ (Homo sapiens, UniProt P05067); assay: Oxidation of Aβ by catalyst under light irradiation; format: biochemical; details: Catalyst 1 4 μM or Catalyst 2 20 μM, Aβ 20 μM, 500 nm LED, 37° C., 15 minutes
Aβ1-42 [2] = biological target: T1, Aβ1-42 (Homo sapiens, UniProt P05067); assay: Thioflavin T fluorescence assay of aggregation; format: biochemical; details: Aβ1-42 20 μM, 37° C., incubation time of 3 hours and 6 hours
Procedure: A part of the reaction mixture (10 μL) was added to a 50 mM glycine-NaOH buffer (pH 8.5, 400 μL) containing thioflavin T (5 μM), and the resultant mixture was immediately mixed to measure a fluorescence intensity of thioflavin T. In the fluorescence intensity measurement, an excitation wavelength was 440 nm, and a fluorescence wavelength was 470 nm.
A phosphate buffer having the same composition was reacted with no irradiation to provide a sample “native Aβ” as a control. Aggregation of each sample was evaluated by thioflavin T assay (it is known that fluorescence intensity of thioflavin T corresponds to the amount of an aggregate being rich in β sheet structure) (FIG. 11).

Aβ1-42 [3] = biological target: T1, Aβ1-42; assay: Atomic force microscope analysis of fibril formation; format: biochemical; details: Aβ1-42 20 μM, 37° C.
Procedure: A phosphate buffer (10 mM, pH 7.4) in which Aβ1-42 (20 μM) and riboflavin (4 μM) had been dissolved was incubated at 37° C. under irradiation with a fluorescent lamp (24 W, natural white, a distance between a light source and a reaction mixture was about 3 cm). A part of the reaction mixture (10 μL) was added on mica, incubated at room temperature for 3 minutes, washed with 20 μL of water, and air dried. The measurement was carried out using Nano Wizard II (JPK instruments AG, Berlin, Germany) in a tapping mode in air at room temperature.

Aβ1-42 [4] = biological target: T1, Aβ1-42; assay: Circular dichroism spectroscopy analysis; format: biochemical; details: Aβ1-42 20 μM, 37° C.
Procedure: A phosphate buffer (10 mM, pH7.4) in which Aβ1-42 (20 μM) and riboflavin (4 μM) had been dissolved was incubated at 37° C. under irradiation with a fluorescent lamp (24 W, natural white, a distance between a light source and a reaction mixture was about 3 cm). A part of the reaction mixture was analyzed using Model 202SF (AVIV Biomedical, Inc., Lakewood, N.J.).

native Aβ = native Aβ (Homo sapiens, UniProt P05067); assay: Inhibition of aggregation of native Aβ by oxidized Aβ (atomic force microscope analysis); format: biochemical; details: native Aβ 20 μM with oxidized Aβ 20 μM, 37° C., 6 hours, compared with native Aβ alone
Procedure: A part of the reaction mixture (10 μL) was added on mica, incubated at room temperature for 3 minutes, washed with 20 μL of water, and air dried. The measurement was carried out using Nano Wizard II (JPK instruments AG, Berlin, Germany) in a tapping mode in air at room temperature.

PC12 cells [5] = details: 10 µM
Procedure: PC12 cells, i.e., rat adrenal medulla-derived pheochromocytoma (purchased from RIKEN, Japan), were used. A phosphate buffer (pH 7.4) in which Aβ1-42 (20 μM) and riboflavin (4 μM) had been dissolved was incubated at room temperature under irradiation with a fluorescent lamp (24 W, natural white, a distance between a light source and a reaction mixture was about 3 cm). A part of the reaction mixture (50 μL) was added to a cell culture medium (50 μL) (final Aβ concentration was 10 μM), and the mixture was incubated at 37° C. for 48 hours under 5% CO2 atmosphere. Cells were observed and photographed using an inverted microscope DMI6000 B (Leica Microsystems GmbH, Wetzlar, Germany) equipped with a digital camera DFC360 FX (Leica Microsystems GmbH). A cell count reagent containing WST-8 (2-(2-methoxy-4-nitrophenyl)-3-(4-nitrophenyl)-5-(2,4-disulfonyl)-2H-tetrazolium, monosodium salt) (10 μL) was added to the mixture. The mixture was incubated at 37° C. for 6 hours under 5% CO2 atmosphere. Thereafter, absorbance at 450 nm (reference wavelength: 655 nm) was measured by iMark™ plate reader (Bio-Rad Laboratories, Inc., Hercules, Calif.).

T1 sequence (P05067 672-713): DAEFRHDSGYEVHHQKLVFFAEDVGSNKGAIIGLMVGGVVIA
native Aβ, sequence (P05067 672-713): as above
Aβ, sequence (P05067 672-713 limits assumed): as the sequence (P05067 672-713) above

Cc1cc2nc3c(=O)[nH]c(=O)nc-3n(C[C@H](O)[C@H](O)[C@H](O)CO)c2cc1C [Catalyst 1, riboflavin]
cell viability (PC12 cells [1]): almost all cells died
extent of Aβ oxidation (Aβ): about 60%

oxidized Aβ: Aβ1-42 oxidized with riboflavin under light; Tyr10, His13, His14 and Met35 oxidized, one to eight oxygen atoms added
fluorescence intensity of thioflavin T (Aβ1-42 [2]): significantly lower than that of the native Aβ
fibril formation (Aβ1-42 [3]): hardly
secondary structure by circular dichroism (Aβ1-42 [4]): random coil structure was maintained
amyloid fibril content (native Aβ): significantly decreased
cell viability (PC12 cells [5]): ≥ 50%
